Assay results as given in patent US10941182 (Amgen, dated 2021).
Starred links: 1 amine or outer side, 2 acyl side, 3 side chain; linkers in the order of their positions; H or OH if unused. Non-standard residues stand in square brackets, D forms with d. Primed or numbered codes have the meaning given here. No end group written: not given here. *: point of attachment. Pra′ = its azide, alkyne or alkene has reacted where a group follows in round brackets; Atz = 3-(1,2,3-triazol-4-yl)alanine, O=C([C@H](Cc1c[nH]nn1)N[*:1])[*:2]; Propanoyl(3-triazol-4-yl) = O=C(CCc1cn([*:1])nn1)[*:2]; PEG12 = NCCOCCOCCOCCOCCOCCOCCOCCOCCOCCOCCOCCOCCC(=O)O; dBip = N[C@H](Cc1ccc(-c2ccccc2)cc1)C(=O)O; Oic = O=C(O)[C@@H]1C[C@@H]2CCCC[C@@H]2N1; Phe(4-Cl) = N[C@@H](Cc1ccc(Cl)cc1)C(=O)O; dPhe(4-Cl) = N[C@H](Cc1ccc(Cl)cc1)C(=O)O; Phe(4-I) = N[C@@H](Cc1ccc(I)cc1)C(=O)O; γGlu = O=C(O)[C@H](CCC(=O)[*:2])N[*:1]; d1Nal = N[C@H](Cc1cccc2ccccc12)C(=O)O; NMeR = CN[C@@H](CCCNC(=N)N)C(=O)O; Tridecanoyl = CCCCCCCCCCCCC(=O)*; hArg = N=C(N)NCCCC[C@H](N)C(=O)O; Cha = N[C@@H](CC1CCCCC1)C(=O)O; NMeL = CN[C@@H](CC(C)C)C(=O)O; AC4Abu″ = not defined here; code O = not defined here; Nle = CCCC[C@H](N)C(=O)O; Orn = NCCC[C@H](N)C(=O)O; AEEA = NCCOCCOCC(=O)O; βAla = NCCC(=O)O; Mpa = O=C(O)CCS

Experiments:
rat APJ receptor = target: T1, rat APJ receptor (rat, UniProt Q9JHG3 1-377); experiment: cell-based or functional assay
T1 sequence (looked up): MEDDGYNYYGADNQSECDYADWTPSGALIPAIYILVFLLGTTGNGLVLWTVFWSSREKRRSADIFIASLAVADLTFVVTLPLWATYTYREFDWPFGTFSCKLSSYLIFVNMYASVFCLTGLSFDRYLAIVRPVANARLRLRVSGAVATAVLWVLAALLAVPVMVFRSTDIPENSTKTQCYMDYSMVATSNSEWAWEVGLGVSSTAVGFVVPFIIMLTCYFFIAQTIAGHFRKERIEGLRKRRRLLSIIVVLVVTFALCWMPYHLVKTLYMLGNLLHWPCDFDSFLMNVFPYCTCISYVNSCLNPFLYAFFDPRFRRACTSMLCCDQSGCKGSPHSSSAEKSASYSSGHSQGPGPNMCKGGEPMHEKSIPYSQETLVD

human APJ receptor = target: T2, human APJ receptor (human, UniProt P35414 1-380); experiment: cell-based or functional assay
T2 sequence (looked up): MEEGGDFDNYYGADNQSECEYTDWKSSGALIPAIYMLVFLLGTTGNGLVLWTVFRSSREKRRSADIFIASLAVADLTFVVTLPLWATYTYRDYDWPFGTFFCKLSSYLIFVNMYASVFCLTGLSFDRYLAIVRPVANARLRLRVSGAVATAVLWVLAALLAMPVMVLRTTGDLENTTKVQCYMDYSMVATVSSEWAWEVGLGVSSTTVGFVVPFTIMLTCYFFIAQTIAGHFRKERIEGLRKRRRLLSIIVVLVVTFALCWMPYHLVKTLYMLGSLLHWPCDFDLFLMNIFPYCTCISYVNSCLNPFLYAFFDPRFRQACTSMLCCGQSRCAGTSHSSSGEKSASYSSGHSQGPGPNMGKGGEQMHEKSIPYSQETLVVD

## {20K mPEGacetamide}-[Mpa]QRP[hArg][Cha]SHKG[Oic][Nle]P[Phe(4-Cl)]-OH (numbers in words are those of the source; also: 20 kDa PEG conjugate) [apelin polypeptide SEQ ID NO: 101]
Rat APJ receptor
  EC50 Rat APJ Receptor: 150 nM
Human APJ receptor
  EC50 Human APJ Receptor: 46.7 nM

## [PEG12]KFRRQRP[hArg][Cha]SHKG[Oic][Nle]P[Phe(4-Cl)]-OH (also: PEG-apelin peptide conjugate) [apelin polypeptide SEQ ID NO: 102]
Rat APJ receptor
  EC50 Rat APJ Receptor: 0.18 nM
Human APJ receptor
  EC50 Human APJ Receptor: 0.083 nM

## {20K‑mPEGReg-Propanoyl(3-triazol-4-yl)}-[hArg][dR]Q[hArg]P[dR][NMeL]SHKG[Oic][Phe(4-I)]P[dBip]-OH (also: 20 kDa PEG conjugate) [apelin polypeptide SEQ ID NO: 103]
Rat APJ receptor
  EC50 Rat APJ Receptor: 52.2 nM
Human APJ receptor
  EC50 Human APJ Receptor: 34.2 nM

## {20K‑mPEGReg-Propanoyl(3-triazol-4-yl)}-[hArg]RQ[hArg]PR[NMeL]SHKG[Oic][Phe(4-I)]P[dBip]-OH (also: 20 kDa PEG conjugate) [apelin polypeptide SEQ ID NO: 104]
Rat APJ receptor
  EC50 Rat APJ Receptor: 45 nM
Human APJ receptor
  EC50 Human APJ Receptor: 18.9 nM

## Ac-[Atz](20K‑mPEG)KFRRQRP[hArg][Cha]SHKG[Oic][Nle]P[Phe(4-Cl)]-OH [apelin polypeptide SEQ ID NO: 105]
Rat APJ receptor
  EC50 Rat APJ Receptor: 0.285 nM
Human APJ receptor
  EC50 Human APJ Receptor: 0.187 nM

## Ac-[Atz](20K‑mPEG)LRP[hArg][Cha]SHKG[Oic][Nle]P[Phe(4-Cl)]-OH [apelin polypeptide SEQ ID NO: 106]
Rat APJ receptor
  EC50 Rat APJ Receptor: 47.3 nM
Human APJ receptor
  EC50 Human APJ Receptor: 3.22 nM

## Ac-[Pra′](20K‑mPEGReg)[Orn]F[hArg][hArg]QRP[hArg][NMeL]SHKG[Oic][Phe(4-I)]P[dBip]-OH [apelin polypeptide SEQ ID NO: 107]
Rat APJ receptor
  EC50 Rat APJ Receptor: 10 nM
Human APJ receptor
  EC50 Human APJ Receptor: 10.5 nM

B1: apelin polypeptide SEQ ID NO: 126 (peptide)
peptide: Tridecanoyl-[γGlu][AEEA][AEEA][dQ][hArg]P[NMeR][Cha]SHKG[Oic][Nle]P[dF]-OH
SMILES: CCCCCCCCCCCCC(=O)N[C@@H](CCC(=O)NCCOCCOCC(=O)NCCOCCOCC(=O)N[C@H](CCC(N)=O)C(=O)N[C@@H](CCCCNC(=N)N)C(=O)N1CCC[C@H]1C(=O)N(C)[C@@H](CCCNC(=N)N)C(=O)N[C@@H](CC1CCCCC1)C(=O)N[C@@H](CO)C(=O)N[C@@H](Cc1c[nH]cn1)C(=O)N[C@@H](CCCCN)C(=O)NCC(=O)N1[C@H](C(=O)N[C@@H](CCCC)C(=O)N2CCC[C@H]2C(=O)N[C@H](Cc2ccccc2)C(=O)O)C[C@@H]2CCCC[C@@H]21)C(=O)O
Rat APJ receptor
  EC50 Rat APJ Receptor: 56.2 nM
Human APJ receptor
  EC50 Human APJ Receptor: 11 nM

B2: apelin polypeptide SEQ ID NO: 149 (peptide)
peptide: Tridecanoyl-[γGlu][AEEA][AEEA][hArg][dQ][hArg]P[NMeR][Cha]SHKG[Oic][Nle]P[dF]-OH
SMILES: CCCCCCCCCCCCC(=O)N[C@@H](CCC(=O)NCCOCCOCC(=O)NCCOCCOCC(=O)N[C@@H](CCCCNC(=N)N)C(=O)N[C@H](CCC(N)=O)C(=O)N[C@@H](CCCCNC(=N)N)C(=O)N1CCC[C@H]1C(=O)N(C)[C@@H](CCCNC(=N)N)C(=O)N[C@@H](CC1CCCCC1)C(=O)N[C@@H](CO)C(=O)N[C@@H](Cc1c[nH]cn1)C(=O)N[C@@H](CCCCN)C(=O)NCC(=O)N1[C@H](C(=O)N[C@@H](CCCC)C(=O)N2CCC[C@H]2C(=O)N[C@H](Cc2ccccc2)C(=O)O)C[C@@H]2CCCC[C@@H]21)C(=O)O
Rat APJ receptor
  EC50 Rat APJ Receptor: 9.99 nM
Human APJ receptor
  EC50 Human APJ Receptor: 3.19 nM

B3: apelin polypeptide SEQ ID NO: 153 (peptide)
peptide: Tridecanoyl-[γGlu][AEEA][AEEA][dR]Q[hArg]P[dR][NMeL]SHKG[Oic][Phe(4-I)]P[Oic]-OH
SMILES: CCCCCCCCCCCCC(=O)N[C@@H](CCC(=O)NCCOCCOCC(=O)NCCOCCOCC(=O)N[C@H](CCCNC(=N)N)C(=O)N[C@@H](CCC(N)=O)C(=O)N[C@@H](CCCCNC(=N)N)C(=O)N1CCC[C@H]1C(=O)N[C@H](CCCNC(=N)N)C(=O)N(C)[C@@H](CC(C)C)C(=O)N[C@@H](CO)C(=O)N[C@@H](Cc1c[nH]cn1)C(=O)N[C@@H](CCCCN)C(=O)NCC(=O)N1[C@H](C(=O)N[C@@H](Cc2ccc(I)cc2)C(=O)N2CCC[C@H]2C(=O)N2[C@H](C(=O)O)C[C@@H]3CCCC[C@@H]32)C[C@@H]2CCCC[C@@H]21)C(=O)O
Rat APJ receptor
  EC50 Rat APJ Receptor: 72 nM
Human APJ receptor
  EC50 Human APJ Receptor: 3.75 nM

B4: apelin polypeptide SEQ ID NO: 154 (peptide)
peptide: Tridecanoyl-[γGlu][AEEA][AEEA][dR]Q[hArg]P[dR][NMeL]SHKG[Oic][Phe(4-I)]P[dPhe(4-Cl)]-OH
SMILES: CCCCCCCCCCCCC(=O)N[C@@H](CCC(=O)NCCOCCOCC(=O)NCCOCCOCC(=O)N[C@H](CCCNC(=N)N)C(=O)N[C@@H](CCC(N)=O)C(=O)N[C@@H](CCCCNC(=N)N)C(=O)N1CCC[C@H]1C(=O)N[C@H](CCCNC(=N)N)C(=O)N(C)[C@@H](CC(C)C)C(=O)N[C@@H](CO)C(=O)N[C@@H](Cc1c[nH]cn1)C(=O)N[C@@H](CCCCN)C(=O)NCC(=O)N1[C@H](C(=O)N[C@@H](Cc2ccc(I)cc2)C(=O)N2CCC[C@H]2C(=O)N[C@H](Cc2ccc(Cl)cc2)C(=O)O)C[C@@H]2CCCC[C@@H]21)C(=O)O
Rat APJ receptor
  EC50 Rat APJ Receptor: 40.5 nM
Human APJ receptor
  EC50 Human APJ Receptor: 4.54 nM

B5: apelin polypeptide SEQ ID NO: 155 (peptide)
peptide: Tridecanoyl-[γGlu][AEEA][AEEA][dR]Q[hArg]P[dR][NMeL]SHKG[Oic][Phe(4-I)]P[d1Nal]-OH
SMILES: CCCCCCCCCCCCC(=O)N[C@@H](CCC(=O)NCCOCCOCC(=O)NCCOCCOCC(=O)N[C@H](CCCNC(=N)N)C(=O)N[C@@H](CCC(N)=O)C(=O)N[C@@H](CCCCNC(=N)N)C(=O)N1CCC[C@H]1C(=O)N[C@H](CCCNC(=N)N)C(=O)N(C)[C@@H](CC(C)C)C(=O)N[C@@H](CO)C(=O)N[C@@H](Cc1c[nH]cn1)C(=O)N[C@@H](CCCCN)C(=O)NCC(=O)N1[C@H](C(=O)N[C@@H](Cc2ccc(I)cc2)C(=O)N2CCC[C@H]2C(=O)N[C@H](Cc2cccc3ccccc23)C(=O)O)C[C@@H]2CCCC[C@@H]21)C(=O)O
Rat APJ receptor
  EC50 Rat APJ Receptor: 49.6 nM
Human APJ receptor
  EC50 Human APJ Receptor: 8.62 nM

B6: apelin polypeptide SEQ ID NO: 173 (peptide)
peptide: Tridecanoyl-[γGlu][AEEA][AEEA][dR]Q[hArg]P[dR][NMeL]SHKG[Oic][Phe(4-I)][dBip]-OH
SMILES: CCCCCCCCCCCCC(=O)N[C@@H](CCC(=O)NCCOCCOCC(=O)NCCOCCOCC(=O)N[C@H](CCCNC(=N)N)C(=O)N[C@@H](CCC(N)=O)C(=O)N[C@@H](CCCCNC(=N)N)C(=O)N1CCC[C@H]1C(=O)N[C@H](CCCNC(=N)N)C(=O)N(C)[C@@H](CC(C)C)C(=O)N[C@@H](CO)C(=O)N[C@@H](Cc1c[nH]cn1)C(=O)N[C@@H](CCCCN)C(=O)NCC(=O)N1[C@H](C(=O)N[C@@H](Cc2ccc(I)cc2)C(=O)N[C@H](Cc2ccc(-c3ccccc3)cc2)C(=O)O)C[C@@H]2CCCC[C@@H]21)C(=O)O
Rat APJ receptor
  EC50 Rat APJ Receptor: 13.7 nM
Human APJ receptor
  EC50 Human APJ Receptor: 1.66 nM

## Tridecanoyl-[AC4Abu″][AEEA][AEEA]RQRP[hArg][NMeL]SHKG[Oic][Phe(4-I)]P[dBip]-OH (reading uncertain) [apelin polypeptide SEQ ID NO: 212]
Human APJ receptor
  EC50 Human APJ Receptor: 0.515 nM

## [hArg]Q[hArg]P[NMeR][Cha]SHKG[Oic][Nle]P[Phe(4-Cl)] [apelin polypeptide SEQ ID NO: 674]
Human APJ receptor
  EC50 Human APJ Receptor: 0.152 nM

B7: apelin polypeptide SEQ ID NO: 708 (peptide)
peptide: [code O]F[hArg][hArg]Q[hArg]P[hArg][Cha]SHKG[Oic][βAla]P[Phe(4-Cl)]
modifications: reading uncertain; also: printed as OF[hArg][hArg]Q[hArg]P[hArg][Cha]SHKG[Oic][bAla]P[4-Cl-F]
Human APJ receptor
  EC50 Human APJ Receptor: 7.46 nM

B8: apelin polypeptide SEQ ID NO: 56 (peptide)
peptide: Ac-[hArg][hArg]Q[hArg]P[NMeR][Cha]SHKG[Oic][Nle]P[Phe(4-Cl)]-OH
SMILES: CCCC[C@H](NC(=O)[C@@H]1C[C@@H]2CCCC[C@@H]2N1C(=O)CNC(=O)[C@H](CCCCN)NC(=O)[C@H](Cc1c[nH]cn1)NC(=O)[C@H](CO)NC(=O)[C@H](CC1CCCCC1)NC(=O)[C@H](CCCNC(=N)N)N(C)C(=O)[C@@H]1CCCN1C(=O)[C@H](CCCCNC(=N)N)NC(=O)[C@H](CCC(N)=O)NC(=O)[C@H](CCCCNC(=N)N)NC(=O)[C@H](CCCCNC(=N)N)NC(C)=O)C(=O)N1CCC[C@H]1C(=O)N[C@@H](Cc1ccc(Cl)cc1)C(=O)O
Rat APJ receptor
  EC50 Rat APJ Receptor: 0.915 nM

B9: apelin polypeptide SEQ ID NO: 97 (peptide)
peptide: KFRRQRP[hArg][Cha]SHKG[Oic][Nle]P[Phe(4-Cl)]-OH
modifications: not fully specified (N-terminus); printed as [MerPr](20K mPEGacetamide)KFRRQRP[hArg][Cha]SHKG[Oic][Nle]P[4-Cl-F]{COOH}; also: 20K mPEG acetamide conjugate on MerPr
Rat APJ receptor
  EC50 Rat APJ Receptor: 0.253 nM
